The results in this text go back to the Human Domainome abundance scans (Beltran et al. 2025).

B1: CD2-associated protein, residues 1 to 59; numbered along this chain, Q9Y5K6 (parent)
chain: MVDYIVEYDYDAVHDDELTIRVGEIIRNVKKLQEEGWLEGELNGRRGMFPDNFVKEIKR

± gives the uncertainty stated by the source.

This series covers variants of B1. In words: abundance fitness (aPCA) (normalised: wild type 0, dead -1); higher = more abundant; growth selection in yeast, the domain comes from the species named. The following applies: Homo sapiens.
As for MVDYIVEYDYDAVHDDELTIRVGEIIRNVKKLQEEGWLEGELNGRRGMFPMNFVKEIKR, the abundance fitness is -0.136 ± 0.41.
For the variant MVDYIVEYDYDAVHDDELTIRVGEIIRNVKKLQEEGWLEGELNGRRGMFPHNFVKEIKR, the abundance fitness was -0.032 ± 0.099.
As for MVDYIVEYDYDAVHDDELTIRVGEIIRNVKKLQEEGWLEGELNGRRGMFPLNFVKEIKR, the abundance fitness was -0.017 ± 0.067.
Turning to MVDYIVEYDYDAVHDDELTIRVGEIIRNVKKLQEEGWLEGELNGRRGMFPINFVKEIKR, the abundance fitness was 0.092 ± 0.11.
The value for MVDYIVEYDYDAVHDDELTIRVGEIIRNVKKLQEEGWLEGELNGRRGMFPCNFVKEIKR was -0.195 ± 0.45; that for MVDYIVEYDYDAVHDDELTIRVGEIIRNVKKLQEEGWLEGELNGRRGMFPANFVKEIKR was 0.04 ± 0.059; that for MVDYIVEYDYDAVHDDELTIRVGEIIRNVKKLQEEGWLEGELNGRCGMFPDNFVKEIKR was -0.363 ± 0.2.
The value for MVDYIVEYDYDAVHDDELTIRVGEIIRNVKKLQEEGWLEGELNGRQGMFPDNFVKEIKR was -0.301 ± 0.21; that for MVDYIVEYDYDAVHDDELTIRVGEIIRNVKKLQEEGWLEGELNGRFGMFPDNFVKEIKR was -0.346 ± 0.2; that for MVDYIVEYDYDAVHDDELTIRVGEIIRNVKKLQEEGWLEGELNGRMGMFPDNFVKEIKR was -0.066 ± 0.2.
The result for MVDYIVEYDYDAVHDDELTIRVGEIIRNVKKLQEEGWLEGELNGRKGMFPDNFVKEIKR reads -0.181 ± 0.17; that for MVDYIVEYDYDAVHDDELTIRVGEIIRNVKKLQEEGWLEGELNGRIGMFPDNFVKEIKR, -0.243 ± 0.37; that for MVDYIVEYDYDAVHDDELTIRVGEIIRNVKKLQEEGWLEGELNGRLGMFPDNFVKEIKR, -0.245 ± 0.12.
Consider MVDYIVEYDYDAVHDDELTIRVGEIIRNVKKLQEEGWLEGELNGREGMFPDNFVKEIKR, for which the abundance fitness was -0.445 ± 0.26.
The result for MVDYIVEYDYDAVHDDELTIRVGEIIRNVKKLQEEGWLEGELNGRWGMFPDNFVKEIKR reads -0.434 ± 0.16; that for MVDYIVEYDYDAVHDDELTIRVGEIIRNVKKLQEEGWLEGELNGRSGMFPDNFVKEIKR, -0.402 ± 0.13; that for MVDYIVEYDYDAVHDDELTIRVGEIIRNVKKLQEEGWLEGELNGRTGMFPDNFVKEIKR, -0.082 ± 0.13.
The value for MVDYIVEYDYDAVHDDELTIRVGEIIRNVKKLQEEGWLEGELNLRRGMFPDNFVKEIKR was -0.547 ± 0.36; that for MVDYIVEYDYDAVHDDELTIRVGEIIRNVKKLQEEGWLEGELNRRRGMFPDNFVKEIKR was -0.133 ± 0.32; that for MVDYIVEYDYDAVHDDELTIRVGEIIRNVKKLQEEGWLEGELNSRRGMFPDNFVKEIKR was -0.592 ± 0.22.
The value for MVDYIVEYDYDAVHDDELTIRVGEIIRNVKKLQEEGWLEGELNVRRGMFPDNFVKEIKR was -0.843 ± 0.31; that for MVDYIVEYDYDAVHDDELTIRVGEIIRNVKKLQEEGWLEGELNHRRGMFPDNFVKEIKR was -0.549 ± 0.3.
In the case of MVDYIVEYDYDAVHDDELTIRVGEIIRNVKKLQEEGWLEGELNGRRGMIPDNFVKEIKR, the abundance fitness is -0.195 ± 0.15.
The value for MVDYIVEYDYDAVHDDELTIRVGEIIRNVKKLQEEGWLEGELNGRRGMPPDNFVKEIKR was -0.877 ± 0.3.
For MVDYIVEYDYDAVHDDELTIRVGEIIRNVKKLQEEGWLEGELNGRRGMQPDNFVKEIKR, the abundance fitness is -0.857 ± 0.43.
The value for MVDYIVEYDYDAVHDDELTIRVGEIIRNVKKLQEEGWLEGELNGRRGMVPDNFVKEIKR was -0.056 ± 0.17.
The value for MVDYIVEYDYDAVHDDELTIRVGEIIRNVKKLQEEGWLEGELNGRRGMSPDNFVKEIKR was -0.695 ± 0.15; that for MVDYIVEYDYDAVHDDELTIRVGEIIRNVKKLQEEGWLEGELNGRRGMMPDNFVKEIKR was -0.38 ± 0.12.
The value for MVDYIVEYDYDAVHDDELTIRVGEIIRNVKKLQEEGWLEGELNGRRGMKPDNFVKEIKR was -0.826 ± 0.43; that for MVDYIVEYDYDAVHDDELTIRVGEIIRNVKKLQEEGWLEGELNGRRGMAPDNFVKEIKR was -0.539 ± 0.26.
With MVDYIVEYDYDAVHDDELTIRVGEIIRNVKKLQEEGWLEGELNGRRGMLPDNFVKEIKR, the abundance fitness is -0.251 ± 0.09.
The result for MVDYIVEYDYDAVHDDELTIRVGEIIRNVKKLQEEGWLEGELNGKRGMFPDNFVKEIKR reads -0.075 ± 0.23.
Turning to MVDYIVEYDYDAVHDDELTIRVGEIIRNVKKLQEEGWLEGELNGARGMFPDNFVKEIKR, the abundance fitness was -0.27 ± 0.14.
The value for MVDYIVEYDYDAVHDDELTIRVGEIIRNVKKLQEEGWLEGELNGHRGMFPDNFVKEIKR was 0.232 ± 0.2.
The result for MVDYIVEYDYDAVHDDELTIRVGEIIRNVKKLQEEGWLEGELNGQRGMFPDNFVKEIKR reads -0.009 ± 0.13; that for MVDYIVEYDYDAVHDDELTIRVGEIIRNVKKLQEEGWLEGELNGCRGMFPDNFVKEIKR, 0.033 ± 0.26; that for MVDYIVEYDYDAVHDDELTIRVGEIIRNVKKLQEEGWLEGELNGFRGMFPDNFVKEIKR, -0.248 ± 0.19.
The value for MVDYIVEYDYDAVHDDELTIRVGEIIRNVKKLQEEGWLEGELNGIRGMFPDNFVKEIKR was -0.191 ± 0.12; that for MVDYIVEYDYDAVHDDELTIRVGEIIRNVKKLQEEGWLEGELNGGRGMFPDNFVKEIKR was -0.7 ± 0.31.
As for MVDYIVEYDYDAVHDDELTIRVGEIIRNVKKLQEEGWLEGELNGSRGMFPDNFVKEIKR, the abundance fitness was -0.07 ± 0.079.
The result for MVDYIVEYDYDAVHDDELTIRVGEIIRNVKKLQEEGWLEGELNGMRGMFPDNFVKEIKR reads -0.274 ± 0.14; that for MVDYIVEYDYDAVHDDELTIRVGEIIRNVKKLQEEGWLEGELNGLRGMFPDNFVKEIKR, -0.224 ± 0.11; that for MVDYIVEYDYDAVHDDELTIRVGEIIRNVKKLQEEGWLEGELNGVRGMFPDNFVKEIKR, -0.275 ± 0.13.
The value for MVDYIVEYDYDAVHDDELTIRVGEIIRNVKKLQEEGWLEGELNGNRGMFPDNFVKEIKR was -0.16 ± 0.14; that for MVDYIVEYDYDAVHDDELTIRVGEIIRNVKKLQEEGWLEGELNGYRGMFPDNFVKEIKR was -0.359 ± 0.24.
